In patent publication US20250340597A1:

Biological target: CH848.d0949.10.17 DT (HIV-1)
Experiment: not stated (FIG. 4)

In the case of DH270 UCA Fab, the Kd is reported as 0.06 µM.
